Results as given in patent US6063592A, “Kell protein proteolytic activity” (New York Blood Center, Inc., priority 1998, dated 2000).
One block for each molecule: values may come before it. Residues, ends and D or L forms follow the SMILES beside them.

Key:
[1] = molecular target: T1, Kell protein (Homo sapiens, UniProt P23276); test: Digestion of big endothelins with soluble recombinant Kell protein, HPLC analysis; format: biochemical; conditions: for cleavage by wild-type Kell and Jsa Kell: N-terminal sequencing and mass spectrometry of cleaved products, yields endothelins; for Km: measured by HPLC, read-out: substrate affinity for cleavage by Kell protein
T1 construct: placing the cDNA that encodes the extracellular portion of Kell in a baculovirus transfer vector pAcGP67-A; made in house; host or cells: sf9 insect cells, baculovirus (pAcGP67A), protein-containing culture medium
T1 sequence (P23276 68-732 limits assumed): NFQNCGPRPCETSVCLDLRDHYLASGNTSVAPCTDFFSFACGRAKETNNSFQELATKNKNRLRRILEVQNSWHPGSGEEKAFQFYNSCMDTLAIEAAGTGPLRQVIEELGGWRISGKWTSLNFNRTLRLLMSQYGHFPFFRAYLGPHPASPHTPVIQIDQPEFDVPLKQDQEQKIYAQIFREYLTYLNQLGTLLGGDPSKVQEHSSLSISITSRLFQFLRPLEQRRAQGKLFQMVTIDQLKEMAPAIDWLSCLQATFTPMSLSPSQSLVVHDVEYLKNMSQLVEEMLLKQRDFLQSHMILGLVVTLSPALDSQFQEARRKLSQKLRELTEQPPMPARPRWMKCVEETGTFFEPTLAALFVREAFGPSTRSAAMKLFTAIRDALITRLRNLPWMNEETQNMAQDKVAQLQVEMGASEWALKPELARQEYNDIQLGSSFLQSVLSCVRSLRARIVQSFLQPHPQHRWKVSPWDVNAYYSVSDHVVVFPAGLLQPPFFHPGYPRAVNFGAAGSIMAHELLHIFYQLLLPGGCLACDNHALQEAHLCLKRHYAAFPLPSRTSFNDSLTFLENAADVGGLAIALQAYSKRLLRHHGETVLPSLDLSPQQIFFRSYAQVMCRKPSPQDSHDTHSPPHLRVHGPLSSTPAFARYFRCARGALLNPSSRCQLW
Protocol: Digestion of Big Endothelin-1,-2, and -3 (Big ET-1, -2, and -3) With Soluble Recombinant Proteins
Enzyme reaction mixture was made by mixing 8-16 μl of 1 mg/ml big ET-1 (1-38), big ET-2 (1-37 or 1-38) and big ET-3 (1-41) (American Peptide Co., Sunnyvale, Calif. and Sigma, St. Louis, Mo. and Peptide Institute, Inc., Osaka, Japan), 10 μl 1 mM ZnCl2 final concentration 86 μM and 70 μl recombinant protein containing media. The mixture was incubated at 37° C. for different time periods. Twenty to 25 aliquots of this incubation mix was assayed by reverse HPLC. The conditions of the analysis were:
Solvent A: 0.1% TFA/2,5% 1-Propanol (PrOH)/H2 O (500 μl
Trifluoroacetic acid+1 L H2 O+25 ml 1-PrOH).
Solvent B; 0.09% TFA/2.5% 1-PrOH/90% Acetonitrile/H2 O (450 μl
TFA+1 L Acetonitrile+100 ml H2 O+25 ml 1-PrOH).
Gradient condition was 1-61% A In B over 0-60 minutes at a flow rate of 0.15 ml/min. The column used was reverse phase C18 column (2×150 mm, Vydac).

[2] = molecular target: Big Endothelin-1 (1-38) (Homo sapiens)
[3] = molecular target: Big Endothelin-2 (1-37)
[4] = molecular target: Big Endothelin-3 (1-41) (Homo sapiens)
[5] = molecular target: T1, Kell protein; test: Inhibition of Kell proteolytic activity by phosphoramidon; format: biochemical; conditions: Kell protease; read-out: Concentration which gives 50% of inhibition
[6] = system: Kell protein; test: as above; format: biochemical, human
[7] = system: hematopoiesis cell culture system; test: Hematopoiesis cell culture system grown on methyl cellulose plates; format: cell-based; conditions: preliminary studies
Excerpt: Meanwhile, the concentration of phosphoramidon needed to inhibit the proteolytic cleavage of big-endothelins by ECE-1 and Kell protein are different. While it is not intended to be bound by theory, it is possible that Kell participates in the proteolytic processing of growth factors or cytokines during hematopoiesis.

[8] = system: Soluble Kell proteins (sKell); test: VIP cutting by sKell proteins; format: biochemical, human; conditions: sf9 protein free media containing sKell
Excerpt: Soluble Kell proteins (sKell) proteins were used to cut vasoactive intestinal peptide (VIP).

[9] = molecular target: T1, Kell protein; test: Digestion of big endothelins with soluble recombinant Kell protein, EIA assay; format: biochemical; conditions: measured by EIA; 15 min; read-out: substrate affinity for cleavage by Kell protein
Protocol: Enzyme reaction mix was made by mixing various amounts of 10 μM big ET's, 20 μl of 10 Kell assay buffer (0.5 M HEPES, 0.5 mM ZnCl2 and 1.5 NaCl containing 4% (v/v) of supernatant boiled BSA) and various amounts of soluble protein containing media (ranging from 0.0313 μl to 4 μl) and H2 O to make a total volume of 200 μl. The enzyme reaction was incubated at 37° C. for 15 min. At the end of the incubation time, 100 μl of 5 mM EDTA was added to terminate the reaction. Various amounts of the sample up to 100 μl were used in Enzyme-linked Immunoassay using Endothelin-1EIA kit (Cayman Chemical).

[10] = molecular target: T2, Kell protein (Homo sapiens, UniProt P23276); test: Bradykinin cleavage by Kell protein; format: biochemical
T2 sequence (P23276 1-732): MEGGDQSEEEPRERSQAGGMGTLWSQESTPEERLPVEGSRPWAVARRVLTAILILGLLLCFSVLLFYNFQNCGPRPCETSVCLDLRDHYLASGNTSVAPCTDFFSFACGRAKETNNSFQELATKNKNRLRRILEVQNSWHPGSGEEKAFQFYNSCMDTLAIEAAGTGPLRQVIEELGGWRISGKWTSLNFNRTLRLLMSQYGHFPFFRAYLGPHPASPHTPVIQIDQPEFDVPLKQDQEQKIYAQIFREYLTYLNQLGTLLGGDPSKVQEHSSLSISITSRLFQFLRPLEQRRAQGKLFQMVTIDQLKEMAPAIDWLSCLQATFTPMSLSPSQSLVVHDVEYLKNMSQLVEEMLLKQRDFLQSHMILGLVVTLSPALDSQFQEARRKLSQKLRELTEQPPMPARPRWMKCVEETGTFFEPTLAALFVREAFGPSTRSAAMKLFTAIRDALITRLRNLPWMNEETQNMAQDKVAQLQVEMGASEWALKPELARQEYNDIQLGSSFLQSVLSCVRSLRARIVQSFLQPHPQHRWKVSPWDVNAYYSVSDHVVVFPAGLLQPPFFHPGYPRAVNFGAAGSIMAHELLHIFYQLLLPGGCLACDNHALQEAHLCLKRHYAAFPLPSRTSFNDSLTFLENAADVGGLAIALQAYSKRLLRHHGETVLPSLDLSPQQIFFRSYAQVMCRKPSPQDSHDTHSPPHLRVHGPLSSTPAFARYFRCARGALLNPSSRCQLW

[11] = molecular target: T3, Kell protease (Homo sapiens, UniProt P23276); test: pH optimum of Kell protease; format: biochemical
T3 sequence (P23276 1-732): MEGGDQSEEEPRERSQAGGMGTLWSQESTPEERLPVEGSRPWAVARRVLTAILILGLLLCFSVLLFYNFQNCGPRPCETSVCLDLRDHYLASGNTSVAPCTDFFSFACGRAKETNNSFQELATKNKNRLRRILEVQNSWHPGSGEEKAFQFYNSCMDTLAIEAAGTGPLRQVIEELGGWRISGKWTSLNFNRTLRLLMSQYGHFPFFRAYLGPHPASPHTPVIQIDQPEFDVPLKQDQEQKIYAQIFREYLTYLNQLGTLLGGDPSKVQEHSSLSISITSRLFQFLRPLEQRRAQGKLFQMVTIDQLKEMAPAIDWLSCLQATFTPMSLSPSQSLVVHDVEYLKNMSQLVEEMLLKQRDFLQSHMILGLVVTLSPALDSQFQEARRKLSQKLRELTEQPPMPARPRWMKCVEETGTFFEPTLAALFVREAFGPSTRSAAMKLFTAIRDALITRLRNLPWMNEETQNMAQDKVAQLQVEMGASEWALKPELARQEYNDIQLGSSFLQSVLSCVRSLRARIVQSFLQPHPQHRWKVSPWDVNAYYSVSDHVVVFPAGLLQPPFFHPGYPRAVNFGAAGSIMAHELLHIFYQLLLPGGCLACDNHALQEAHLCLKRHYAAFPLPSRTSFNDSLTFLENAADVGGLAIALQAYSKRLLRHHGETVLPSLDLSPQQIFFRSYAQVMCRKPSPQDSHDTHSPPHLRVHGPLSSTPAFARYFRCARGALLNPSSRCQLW

Molecule: big-endothelin-2: inactive precursor of endothelin-2, substrate of Kell protein (CSCSSWLDKECVYFCHLDIIWVNTPEQTAPYGEGNPP)
cleavage by wild-type Kell and Jsa Kell [1]: cleaved | Km [1]: ~20 µM

cleavage of big endothelin-1; substrate affinity (HPLC) [2]: 80 µM | cleavage of big endothelin-2; substrate affinity (HPLC) [3]: 20 µM | cleavage of big endothelin-3; substrate affinity (EIA) [4]: < 2 µM
Molecule: soluble wild type Kell (secreted form of wild-type Kell protein, extracellular portion, expressed in sf9 cells) (from UniProt P23276) (enzyme)

IC50 [5]: 50 to 100 µM
Molecule: CC(C)C[C@H](NP(=O)(O)O[C@@H]1O[C@@H](C)[C@H](O)[C@@H](O)[C@H]1O)C(=O)N[C@@H](Cc1c[nH]c2ccccc12)C(=O)O [Phosphoramidon]
inhibition of Kell enzymatic activity [6]: inhibited | effect on cell growth ([7]; higher concentration of phosphoramidon (50-100 μM)): inhibited cell growth | effect on cell growth ([7]; low concentration of phosphoramidon (3.5-7.0 μM)): increased cell growth

Molecule: VIP: vasoactive intestinal peptide (1-28), a vasodilator (HSDAVFTDNYTRLRKQMAVKKYLNSILN)
cleavage of VIP by soluble Kell [8]: cleaves | cleavage of VIP by soluble Kell ([8]; listed as vasoactive intestinal peptide (VIP)): cleaved

Molecule: big-endothelin-3: inactive precursor of endothelin-3, substrate of Kell protein (CTCFTYKDKECVYYCHLDIIWVNTPEQTVPYGLSNYRGSFR)
cleavage by wild-type Kell and Jsa Kell [1]: cleaved | Km [9]: < 2 µM

Molecule: big-endothelin-1: inactive 38 amino acid precursor of endothelin-1, substrate of Kell protein (CSCSSLMDKECVYFCHLDIIWVNTPEHVVPYGLGSPRS)
cleavage by wild-type Kell and Jsa Kell [1]: cleaved | Km [1]: ~80 µM

Molecule: NC(N)=NCCC[C@H](NC(=O)[C@H](Cc1ccccc1)NC(=O)[C@@H]1CCCN1C(=O)[C@H](CO)NC(=O)[C@H](Cc1ccccc1)NC(=O)CNC(=O)[C@@H]1CCCN1C(=O)[C@@H]1CCCN1C(=O)[C@@H](N)CCCN=C(N)N)C(=O)O [bradykinin] (H-RPPGFSPFR-OH)
cleavage by Kell protein [10]: does not cleave

pH optimum [11]: 6.0-6.5
B1: Kell protease: secreted recombinant wild-type human Kell blood group protein expressed in sf9 cells (protein)
chain: NFQNCGPRPCETSVCLDLRDHYLASGNTSVAPCTDFFSFACGRAKETNNSFQELATKNKNRLRRILEVQNSWHPGSGEEKAFQFYNSCMDTLAIEAAGTGPLRQVIEELGGWRISGKWTSLNFNRTLRLLMSQYGHFPFFRAYLGPHPASPHTPVIQIDQPEFDVPLKQDQEQKIYAQIFREYLTYLNQLGTLLGGDPSKVQEHSSLSISITSRLFQFLRPLEQRRAQGKLFQMVTIDQLKEMAPAIDWLSCLQATFTPMSLSPSQSLVVHDVEYLKNMSQLVEEMLLKQRDFLQSHMILGLVVTLSPALDSQFQEARRKLSQKLRELTEQPPMPARPRWMKCVEETGTFFEPTLAALFVREAFGPSTRSAAMKLFTAIRDALITRLRNLPWMNEETQNMAQDKVAQLQVEMGASEWALKPELARQEYNDIQLGSSFLQSVLSCVRSLRARIVQSFLQPHPQHRWKVSPWDVNAYYSVSDHVVVFPAGLLQPPFFHPGYPRAVNFGAAGSIMAHELLHIFYQLLLPGGCLACDNHALQEAHLCLKRHYAAFPLPSRTSFNDSLTFLENAADVGGLAIALQAYSKRLLRHHGETVLPSLDLSPQQIFFRSYAQVMCRKPSPQDSHDTHSPPHLRVHGPLSSTPAFARYFRCARGALLNPSSRCQLW

B2: Jsa: secreted form of Js^a Kell phenotype (L597P) (protein)
chain: NFQNCGPRPCETSVCLDLRDHYLASGNTSVAPCTDFFSFACGRAKETNNSFQELATKNKNRLRRILEVQNSWHPGSGEEKAFQFYNSCMDTLAIEAAGTGPLRQVIEELGGWRISGKWTSLNFNRTLRLLMSQYGHFPFFRAYLGPHPASPHTPVIQIDQPEFDVPLKQDQEQKIYAQIFREYLTYLNQLGTLLGGDPSKVQEHSSLSISITSRLFQFLRPLEQRRAQGKLFQMVTIDQLKEMAPAIDWLSCLQATFTPMSLSPSQSLVVHDVEYLKNMSQLVEEMLLKQRDFLQSHMILGLVVTLSPALDSQFQEARRKLSQKLRELTEQPPMPARPRWMKCVEETGTFFEPTLAALFVREAFGPSTRSAAMKLFTAIRDALITRLRNLPWMNEETQNMAQDKVAQLQVEMGASEWALKPELARQEYNDIQLGSSFLQSVLSCVRSLRARIVQSFLQPHPQHRWKVSPWDVNAYYSVSDHVVVFPAGLLQPPFFHPGYPRAVNFGAAGSIMAHELLHIFYQLLLPGGCPACDNHALQEAHLCLKRHYAAFPLPSRTSFNDSLTFLENAADVGGLAIALQAYSKRLLRHHGETVLPSLDLSPQQIFFRSYAQVMCRKPSPQDSHDTHSPPHLRVHGPLSSTPAFARYFRCARGALLNPSSRCQLW
cleavage of VIP by soluble Kell [8]: cleaves more than wild type Kell
